Experimental data reported in patent publication US20250011363A1, “OPTIMIZED SHORTENED PEPTIDE THAT BINDS TO ACETYLCHOLINE RECEPTOR, AND USE THEREOF” (SKINMED CO., LTD., priority 2021, published 2025).

B1: LRRGVRR (peptide)
peptide: LRRGVRR
B2: RRQRRM (peptide)
peptide: RRQRRM
B3: FRRQRR (peptide)
peptide: FRRQRR
B4: RRQRRW (peptide)
peptide: RRQRRW
B5: RRQRRI (peptide)
peptide: RRQRRI
B6: RRRQRR (peptide)
peptide: RRRQRR
B7: RRGVRRC (peptide)
peptide: RRGVRRC
B8: PRRGVRR (peptide)
peptide: PRRGVRR
B9: RRQRRD (peptide)
peptide: RRQRRD
B10: RRQRRC (peptide)
peptide: RRQRRC
B11: VRRQRR (peptide)
peptide: VRRQRR
B12: RRQRRV (peptide)
peptide: RRQRRV
B13: HRRQRR (peptide)
peptide: HRRQRR
B14: YRRQRR (peptide)
peptide: YRRQRR
B15: RRGVRRP (peptide)
peptide: RRGVRRP
B16: RRQRRP (peptide)
peptide: RRQRRP
B17: PRRQRR (peptide)
peptide: PRRQRR
B18: RRQRRF (peptide)
peptide: RRQRRF
B19: RRQRRR (peptide)
peptide: RRQRRR
B20: RRQRRE (peptide)
peptide: RRQRRE
B21: GRRQRR (peptide)
peptide: GRRQRR
B22: TRRQRR (peptide)
peptide: TRRQRR
B23: CRRGVRR (peptide)
peptide: CRRGVRR
B24: RRGVRRV (peptide)
peptide: RRGVRRV
B25: LRRQRR (peptide)
peptide: LRRQRR
B26: RRQRRN (peptide)
peptide: RRQRRN
B27: RRQRRA (peptide)
peptide: RRQRRA
B28: SRRQRR (peptide)
peptide: SRRQRR
B29: ERRQRR (peptide)
peptide: ERRQRR
B30: NRRQRR (peptide)
peptide: NRRQRR
B31: GRRGVRR (peptide)
peptide: GRRGVRR
B32: ARRQRR (peptide)
peptide: ARRQRR
B33: RRQRRK (peptide)
peptide: RRQRRK
B34: KRRQRR (peptide)
peptide: KRRQRR
B35: RRQRRY (peptide)
peptide: RRQRRY
B36: CRRQRR (peptide)
peptide: CRRQRR
B37: RRQRRL (peptide)
peptide: RRQRRL
B38: RRQRRH (peptide)
peptide: RRQRRH
B39: RRGVRRA (peptide)
peptide: RRGVRRA
B40: RRQRRT (peptide)
peptide: RRQRRT
B41: RRQRRS (peptide)
peptide: RRQRRS
B42: RRQRRG (peptide)
peptide: RRQRRG
B43: RRGVRRG (peptide)
peptide: RRGVRRG
B44: WRRQRR (peptide)
peptide: WRRQRR
B45: RRQRRQ (peptide)
peptide: RRQRRQ
B46: VRRGVRR (peptide)
peptide: VRRGVRR
B47: IRRQRR (peptide)
peptide: IRRQRR
B48: QRRQRR (peptide)
peptide: QRRQRR
B49: MRRQRR (peptide)
peptide: MRRQRR
B50: ARRGVRR (peptide)
peptide: ARRGVRR
B51: DRRQRR (peptide)
peptide: DRRQRR
B52: 5mer-645 (peptide)
peptide: RHKDK
B53: 5mer-947 (peptide)
peptide: KDWIR
B54: 5mer-644 (peptide)
peptide: RMKWK
B55: 5mer-642 (peptide)
peptide: RAWDR
B56: 5mer-946 (peptide)
peptide: KYPWR
B57: 5mer-939 (peptide)
peptide: KMHAR
B58: 5mer-643 (peptide)
peptide: KHDGR
B59: 5mer-647 (peptide)
peptide: KHTVK
B60: 5mer-646 (peptide)
peptide: KDTKR
B61: 5mer-648 (peptide)
peptide: KNKKR
B62: 5mer-940 (peptide)
peptide: KCMGK
B63: 5mer-948 (peptide)
peptide: KDSFK
B64: 5mer-944 (peptide)
peptide: RYEFK
B65: 5mer-640 (peptide)
peptide: KNPHK
B66: 5mer-641 (peptide)
peptide: RITWK
B67: 5mer-941 (peptide)
peptide: KNHHR
B68: 5mer-945 (peptide)
peptide: RYEKR
B69: 5mer-943 (peptide)
peptide: KDKGK
B70: 5mer-942 (peptide)
peptide: RPSDR

The binders below were run against acetylcholine receptor (assay: SPR, AchR immobilized on chip).
B1 showed a Binding affinity (relative to RRGVRR) (value relative to the RRGVRR sequence) of 149. B2 gave a Binding affinity (relative to RRQRR) (relative value to the RRQRR sequence) of 122. B3 gave a Binding affinity (relative to RRQRR) (relative value to the RRQRR sequence) of 143. With B4 the Binding affinity (relative to RRQRR) (relative value to the RRQRR sequence) was 129. B5 gave a Binding affinity (relative to RRQRR) (relative value to the RRQRR sequence) of 133. B6 gave a Binding affinity (relative to RRQRR) (relative value to the RRQRR sequence) of 189. B7 was tested, and the Binding affinity (relative to RRGVRR) (value relative to the RRGVRR sequence) was 131. B8 was tested, and the Binding affinity (relative to RRGVRR) (value relative to the RRGVRR sequence) was 138. B9 was tested, and the Binding affinity (relative to RRQRR) (relative value to the RRQRR sequence) was 65. Work on B10 yielded a Binding affinity (relative to RRQRR) (relative value to the RRQRR sequence) of 126. B11 gave a Binding affinity (relative to RRQRR) (relative value to the RRQRR sequence) of 135. Work on B12 yielded a Binding affinity (relative to RRQRR) (relative value to the RRQRR sequence) of 120. For B13, the Binding affinity (relative to RRQRR) (relative value to the RRQRR sequence) was 164. Work on B14 yielded a Binding affinity (relative to RRQRR) (relative value to the RRQRR sequence) of 130. For B15, the Binding affinity (relative to RRGVRR) (value relative to the RRGVRR sequence) was 142. Work on B16 yielded a Binding affinity (relative to RRQRR) (relative value to the RRQRR sequence) of 137. Work on B17 yielded a Binding affinity (relative to RRQRR) (relative value to the RRQRR sequence) of 133. With B18 the Binding affinity (relative to RRQRR) (relative value to the RRQRR sequence) was 132. B19 showed a Binding affinity (relative to RRQRR) (relative value to the RRQRR sequence) of 192. For B20, the Binding affinity (relative to RRQRR) (relative value to the RRQRR sequence) was 37. B21 was tested, and the Binding affinity (relative to RRQRR) (relative value to the RRQRR sequence) was 132. For B22, the Binding affinity (relative to RRQRR) (relative value to the RRQRR sequence) was 103. For B23, the Binding affinity (relative to RRGVRR) (value relative to the RRGVRR sequence) was 128. In the case of B24, the Binding affinity (relative to RRGVRR) (value relative to the RRGVRR sequence) is reported as 149. Binder B25 has a Binding affinity (relative to RRQRR) (relative value to the RRQRR sequence) of 144. B26 was tested, and the Binding affinity (relative to RRQRR) (relative value to the RRQRR sequence) was 109. B27 was tested, and the Binding affinity (relative to RRQRR) (relative value to the RRQRR sequence) was 113. For B28, the Binding affinity (relative to RRQRR) (relative value to the RRQRR sequence) was 121. With B29 the Binding affinity (relative to RRQRR) (relative value to the RRQRR sequence) was 147. Binder B30 has a Binding affinity (relative to RRQRR) (relative value to the RRQRR sequence) of 113. Work on B31 yielded a Binding affinity (relative to RRGVRR) (value relative to the RRGVRR sequence) of 137. B32 gave a Binding affinity (relative to RRQRR) (relative value to the RRQRR sequence) of 129. For B33, the Binding affinity (relative to RRQRR) (relative value to the RRQRR sequence) was 175. B34 showed a Binding affinity (relative to RRQRR) (relative value to the RRQRR sequence) of 173. B35 was tested, and the Binding affinity (relative to RRQRR) (relative value to the RRQRR sequence) was 105. For B36, the Binding affinity (relative to RRQRR) (relative value to the RRQRR sequence) was 123. With B37 the Binding affinity (relative to RRQRR) (relative value to the RRQRR sequence) was 141. Binder B38 has a Binding affinity (relative to RRQRR) (relative value to the RRQRR sequence) of 158. B39 gave a Binding affinity (relative to RRGVRR) (value relative to the RRGVRR sequence) of 118. Work on B40 yielded a Binding affinity (relative to RRQRR) (relative value to the RRQRR sequence) of 117. B41 gave a Binding affinity (relative to RRQRR) (relative value to the RRQRR sequence) of 113. In the case of B42, the Binding affinity (relative to RRQRR) (relative value to the RRQRR sequence) is reported as 109. B43 gave a Binding affinity (relative to RRGVRR) (value relative to the RRGVRR sequence) of 105. Work on B44 yielded a Binding affinity (relative to RRQRR) (relative value to the RRQRR sequence) of 138. Work on B45 yielded a Binding affinity (relative to RRQRR) (relative value to the RRQRR sequence) of 101. Work on B46 yielded a Binding affinity (relative to RRGVRR) (value relative to the RRGVRR sequence) of 140. With B47 the Binding affinity (relative to RRQRR) (relative value to the RRQRR sequence) was 121. In the case of B48, the Binding affinity (relative to RRQRR) (relative value to the RRQRR sequence) is reported as 105. With B49 the Binding affinity (relative to RRQRR) (relative value to the RRQRR sequence) was 119. B50 was tested, and the Binding affinity (relative to RRGVRR) (value relative to the RRGVRR sequence) was 134. For B51, the Binding affinity (relative to RRQRR) (relative value to the RRQRR sequence) was 163.

These binders were tested against acetylcholine receptor (assay: SPR, peptide at 10 uM, acetylcholine receptor immobilized on chip).
B52 was tested, and the Binding affinity (RU) was 20 RU. B53 gave a Binding affinity (RU) of 27 RU. In the case of B54, the Binding affinity (RU) is reported as 24 RU. Binder B55 has a Binding affinity (RU) of 22 RU. B56 was tested, and the Binding affinity (RU) was 32 RU. For B57, the Binding affinity (RU) was 24 RU. With B58 the Binding affinity (RU) was 28 RU. B59 was tested, and the Binding affinity (RU) was 29 RU. With B60 the Binding affinity (RU) was 16 RU. With B61 the Binding affinity (RU) was 15 RU. Work on B62 yielded a Binding affinity (RU) of 18 RU. B63 showed a Binding affinity (RU) of 18 RU. B64 gave a Binding affinity (RU) of 25 RU. Work on B65 yielded a Binding affinity (RU) of 15 RU. B66 was tested, and the Binding affinity (RU) was 22 RU. Binder B67 has a Binding affinity (RU) of 21 RU. B68 gave a Binding affinity (RU) of 23 RU. In the case of B69, the Binding affinity (RU) is reported as 12 RU. B70 gave a Binding affinity (RU) of 11 RU.
